B1: RNF6 (protein, UniProt Q9Y252 1-685, looked up)
E3 ubiquitin-protein ligase …: MNQSRSRSDGGSEETLPQDHNHHENERRWQQERLHREEAYYQFINELNDEDYRLMRDHNLLGTPGEITSEELQQRLDGVKEQLASQPDLRDGTNYRDSEVPRESSHEDSLLEWLNTFRRTGNATRSGQNGNQTWRAVSRTNPNNGEFRFSLEIHVNHENRGFEIHGEDYTDIPLSDSNRDHTANRQQRSTSPVARRTRSQTSVNFNGSSSNIPRTRLASRGQNPAEGSFSTLGRLRNGIGGAAGIPRANASRTNFSSHTNQSGGSELRQREGQRFGAAHVWENGARSNVTVRNTNQRLEPIRLRSTSNSRSRSPIQRQSGTVYHNSQRESRPVQQTTRRSVRRRGRTRVFLEQDRERERRGTAYTPFSNSRLVSRITVEEGEESSRSSTAVRRHPTITLDLQVRRIRPGENRDRDSIANRTRSRVGLAENTVTIESNSGGFRRTISRLERSGIRTYVSTITVPLRRISENELVEPSSVALRSILRQIMTGFGELSSLMEADSESELQRNGQHLPDMHSELSNLGTDNNRSQHREGSSQDRQAQGDSTEMHGENETTQPHTRNSDSRGGRQLRNPNNLVETGTLPILRLAHFFLLNESDDDDRIRGLTKEQIDNLSTRHYEHNSIDSELGKICSVCISDYVTGNKLRQLPCMHEFHIHCIDRWLSENCTCPICRQPVLGSNIANNG
B2: RXRA (protein, UniProt P19793 1-462, looked up)
Retinoic acid receptor …: MDTKHFLPLDFSTQVNSSLTSPTGRGSMAAPSLHPSLGPGIGSPGQLHSPISTLSSPINGMGPPFSVISSPMGPHSMSVPTTPTLGFSTGSPQLSSPMNPVSSSEDIKPPLGLNGVLKVPAHPSGNMASFTKHICAICGDRSSGKHYGVYSCEGCKGFFKRTVRKDLTYTCRDNKDCLIDKRQRNRCQYCRYQKCLAMGMKREAVQEERQRGKDRNENEVESTSSANEDMPVERILEAELAVEPKTETYVEANMGLNPSSPNDPVTNICQAADKQLFTLVEWAKRIPHFSELPLDDQVILLRAGWNELLIASFSHRSIAVKDGILLATGLHVHRNSAHSAGVGAIFDRVLTELVSKMRDMQMDKTELGCLRAIVLFNPDSKGLSNPAEVEALREKVYASLEAYCKHKYPEQPGRFAKLLLRLPALRSIGLKCLEHLFFFKLIGDTPIDTFLMEMLEAPHQMT
B3: BBX (protein, UniProt Q8WY36 1-941, looked up)
HMG box transcription factor …: MKGSNRNKDHSAEGEGVGKRPKRKCLQWHPLLAKKLLDFSEEEEEEDEEEDIDKVQLLGADGLEQDVGETEDDESPEQRARRPMNAFLLFCKRHRSLVRQEHPRLDNRGATKILADWWAVLDPKEKQKYTDMAKEYKDAFMKANPGYKWCPTTNKPVKSPTPTVNPRKKLWAFPSDSSRDLPSPKKAKTEEMPQLNFGMADPTQMGGLSMLLLAGEHALGTPEVSSGTCRPDVSESPELRQKSPLFQFAEISSSTSHSDASTKQCQTSALFQFAEISSNTSQLGGAEPVKRCGKSALFQLAEMCLASEGMKMEESKLIKAKESDGGRIKELEKGKEEKEIKMEKTDETRLQKEAEFEKSAKENLRDSKELRNFEALQIDDIMAIKMEDPKEIRKEELEEDHKCSHFPDFSYSASSKIIISDVPSRKDHMCHPHGIMIIEDPAALNKPEKLKKKKKKSKMDRHGNDKSTPKKTCKKRQSSESDIESVIYTIEAVAKGDWGIEKLGDTPRKKVRTSSSGKGSILDAKPPKKKVKSREKKMSKEKSSDTTKESRPPDFISISASKNISGETPEGIKAEPLTPMEDALPPSLSGQAKPEDSDCHRKIETCGSRKSERSCKGALYKTLVSEGMLTSLRANVDRGKRSSGKGNSSDHEGCWNEESWTFSQSGTSGSKKFKKTKPKEDCLLGSAKLDEEFEKKFNSLPQYSPVTFDRKCVPVPRKKKKTGNVSSEPTKTSKGPFQSQKKNLFHKIVSKYKHKKEKPNVPEKGSGDKWSNKQLFLDAIHPTEAIFSEDRNTMEPVHKVKNIPSIFNTPEPTTTQEPLVGSQKRKARKTKITHLVRTADGRVSPAGGTLDDKPKEQLQRSLPKATETDCNDKCSHNTEVGETRSSTPEMPAVSAFFSLAALAEVAAMENVHRGQRSTPLTHDGQPKEMPQAPVLISCADQ
B4: BATF3 (protein, UniProt Q9NR55 1-127, looked up)
Basic leucine zipper …: MSQGLPAAGSVLQRSVAAPGNQPQPQPQQQSPEDDDRKVRRREKNRVAAQRSRKKQTQKADKLHEEYESLEQENTMLRREIGKLTEELKHLTEALKEHEKMCPLLLCPMNFVPVPPRPDPVAGCLPR
B5: RSF1 (protein, UniProt Q96T23 1-1441, looked up)
Remodeling and spacing factor …: MATAAAAAAVMAPPGCPGSCPNFAVVCSFLERYGPLLDLPELPFPELERVLQAPPPDVGNGEVPKELVELHLKLMRKIGKSVTADRWEKYLIKICQEFNSTWAWEMEKKGYLEMSVECKLALLKYLCECQFDDNLKFKNIINEEDADTMRLQPIGRDKDGLMYWYQLDQDHNVRMYIEEQDDQDGSSWKCIVRNRNELAETLALLKAQIDPVLLKNSSQQDNSSRESPSLEDEETKKEEETPKQEEQKESEKMKSEEQPMDLENRSTANVLEETTVKKEKEDEKELVKLPVIVKLEKPLPENEEKKIIKEESDSFKENVKPIKVEVKECRADPKDTKSSMEKPVAQEPERIEFGGNIKSSHEITEKSTEETEKLKNDQQAKIPLKKREIKLSDDFDSPVKGPLCKSVTPTKEFLKDEIKQEEETCKRISTITALGHEGKQLVNGEVSDERVAPNFKTEPIETKFYETKEESYSPSKDRNIITEGNGTESLNSVITSMKTGELEKETAPLRKDADSSISVLEIHSQKAQIEEPDPPEMETSLDSSEMAKDLSSKTALSSTESCTMKGEEKSPKTKKDKRPPILECLEKLEKSKKTFLDKDAQRLSPIPEEVPKSTLESEKPGSPEAAETSPPSNIIDHCEKLASEKEVVECQSTSTVGGQSVKKVDLETLKEDSEFTKVEMDNLDNAQTSGIEEPSETKGSMQKSKFKYKLVPEEETTASENTEITSERQKEGIKLTIRISSRKKKPDSPPKVLEPENKQEKTEKEEEKTNVGRTLRRSPRISRPTAKVAEIRDQKADKKRGEGEDEVEEESTALQKTDKKEILKKSEKDTNSKVSKVKPKGKVRWTGSRTRGRWKYSSNDESEGSGSEKSSAASEEEEEKESEEAILADDDEPCKKCGLPNHPELILLCDSCDSGYHTACLRPPLMIIPDGEWFCPPCQHKLLCEKLEEQLQDLDVALKKKERAERRKERLVYVGISIENIIPPQEPDFSEDQEEKKKDSKKSKANLLERRSTRTRKCISYRFDEFDEAIDEAIEDDIKEADGGGVGRGKDISTITGHRGKDISTILDEERKENKRPQRAAAARRKKRRRLNDLDSDSNLDEEESEDEFKISDGSQDEFVVSDENPDESEEDPPSNDDSDTDFCSRRLRRHPSRPMRQSRRLRRKTPKKKYSDDDEEEESEENSRDSESDFSDDFSDDFVETRRRRSRRNQKRQINYKEDSESDGSQKSLRRGKEIRRVHKRRLSSSESEESYLSKNSEDDELAKESKRSVRKRGRSTDEYSEADEEEEEEEGKPSRKRLHRIETDEEESCDNAHGDANQPARDSQPRVLPSEQESTKKPYRIESDEEEDFENVGKVGSPLDYSLVDLPSTNGQSPGKAIENLIGKPTEKSQTPKDNSTASASLASNGTSGGQEAGAPEEEEDELLRVTDLVDYVCNSEQL
B6: RUNX3 (protein, UniProt Q13761 1-415, looked up)
Runt-related transcription …: MRIPVDPSTSRRFTPPSPAFPCGGGGGKMGENSGALSAQAAVGPGGRARPEVRSMVDVLADHAGELVRTDSPNFLCSVLPSHWRCNKTLPVAFKVVALGDVPDGTVVTVMAGNDENYSAELRNASAVMKNQVARFNDLRFVGRSGRGKSFTLTITVFTNPTQVATYHRAIKVTVDGPREPRRHRQKLEDQTKPFPDRFGDLERLRMRVTPSTPSPRGSLSTTSHFSSQPQTPIQGTSELNPFSDPRQFDRSFPTLPTLTESRFPDPRMHYPGAMSAAFPYSATPSGTSISSLSVAGMPATSRFHHTYLPPPYPGAPQNQSGPFQANPSPYHLYYGTSSGSYQFSMVAGSSSGGDRSPTRMLASCTSSAASVAAGNLMNPSLGGQSDGVEADGSHSNSPTALSTPGRMDEAVWRPY
B7: RNF2 (protein, UniProt Q99496 2-336, looked up)
E3 ubiquitin-protein ligase …: SQAVQTNGTQPLSKTWELSLYELQRTPQEAITDGLEIVVSPRSLHSELMCPICLDMLKNTMTTKECLHRFCADCIITALRSGNKECPTCRKKLVSKRSLRPDPNFDALISKIYPSRDEYEAHQERVLARINKHNNQQALSHSIEEGLKIQAMNRLQRGKKQQIENGSGAEDNGDSSHCSNASTHSNQEAGPSNKRTKTSDDSGLELDNNNAAMAIDPVMDGASEIELVFRPHPTLMEKDDSAQTRYIKTSGNATVDHLSKYLAVRLALEELRSKGESNQMNLDTASEKQYTIYIATASGQFTVLNGSFSLELVSEKYWKVNKPMELYYAPTKEHK
B8: ROG (protein, UniProt Q9Y2Y4 1-487, looked up)
Zinc finger and BTB …: MSLPPIRLPSPYGSDRLVQLAARLRPALCDTLITVGSQEFPAHSLVLAGVSQQLGRRGQWALGEGISPSTFAQLLNFVYGESVELQPGELRPLQEAARALGVQSLEEACWRARGDRAKKPDPGLKKHQEEPEKPSRNPERELGDPGEKQKPEQVSRTGGREQEMLHKHSPPRGRPEMAGATQEAQQEQTRSKEKRLQAPVGQRGADGKHGVLTWLRENPGGSEESLRKLPGPLPPAGSLQTSVTPRPSWAEAPWLVGGQPALWSILLMPPRYGIPFYHSTPTTGAWQEVWREQRIPLSLNAPKGLWSQNQLASSSPTPGSLPQGPAQLSPGEMEESDQGHTGALATCAGHEDKAGCPPRPHPPPAPPARSRPYACSVCGKRFSLKHQMETHYRVHTGEKPFSCSLCPQRSRDFSAMTKHLRTHGAAPYRCSLCGAGCPSLASMQAHMRGHSPSQLPPGWTIRSTFLYSSSRPSRPSTSPCCPSSSTT
B9: RXRG (protein, UniProt P48443 1-463, looked up)
Retinoic acid receptor …: MYGNYSHFMKFPAGYGGSPGHTGSTSMSPSAALSTGKPMDSHPSYTDTPVSAPRTLSAVGTPLNALGSPYRVITSAMGPPSGALAAPPGINLVAPPSSQLNVVNSVSSSEDIKPLPGLPGIGNMNYPSTSPGSLVKHICAICGDRSSGKHYGVYSCEGCKGFFKRTIRKDLIYTCRDNKDCLIDKRQRNRCQYCRYQKCLVMGMKREAVQEERQRSRERAESEAECATSGHEDMPVERILEAELAVEPKTESYGDMNMENSTNDPVTNICHAADKQLFTLVEWAKRIPHFSDLTLEDQVILLRAGWNELLIASFSHRSVSVQDGILLATGLHVHRSSAHSAGVGSIFDRVLTELVSKMKDMQMDKSELGCLRAIVLFNPDAKGLSNPSEVETLREKVYATLEAYTKQKYPEQPGRFAKLLLRLPALRSIGLKCLEHLFFFKLIGDTPIDTFLMEMLETPLQIT
B10: RYBP (protein, UniProt Q8N488 1-228, looked up)
RING1 and YY1-binding protein: MTMGDKKSPTRPKRQAKPAADEGFWDCSVCTFRNSAEAFKCSICDVRKGTSTRKPRINSQLVAQQVAQQYATPPPPKKEKKEKVEKQDKEKPEKDKEISPSVTKKNTNKKTKPKSDILKDPPSEANSIQSANATTKTSETNHTSRPRLKNVDRSTAQQLAVTVGNVTVIITDFKEKTRSSSTSSSTVTSSAGSEQQNQSSSGSESTDKGSSRSSTPKGDMSAVNDESF

Test system: HEK293FT cells transfected with TF library
Assay: Screening of TF condensates based on fluorescent puncta
Format: cell-based
Settings: Figure 1B numerical data; TF library screen, one value per transcriptional factor
How it was run: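 Puncta scoring used automated confocal imaging of fifty random fields per well, after anti-Flag or anti-GAL4 immunofluorescence (Alexa 488) in PFA-fixed cells. HEK293FT cells carried TF library plasmids delivered with PEI (1.6 μg/ml DNA). At 60 h they were switched for 12 h to glucose-containing or glucose-free medium.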

Molecule	Z score of condensed fraction
B1	-1.108
B2	-0.874
B3	1.56
B4	-0.4698
B5	-1.08
B6	-0.4732
B7	-0.7099
B8	-0.6823
B9	0.0107
B10	-0.5834
